Here are results for 18 sequences from the DeepSol protein solubility set.

The data set in a line: soluble on expression in E. coli; label from the status in PepcDB or PDB records.
Turning to “MAGMHFLVGISTENYVILAADKATFAYGAILADSENDKEYRLGKKLTMMCIGEEGDVAQFGDWTKRNLQLYSVRNGYEVSPSCAHHFVRRSIAEGLRSQDHYTVDVLIGGYDDKEDKAFLGSVDYLANGLGQQPYLFRGFCGRFCYAIMDREYKKDMTEAEGLALMNKCIGEAKRRFVANIPGYKVVIIDKKGYRKLDDVLF”, the “soluble on expression in E. coli” value is on record as “soluble”.
In the case of “MKPSWDIFCSVVDNYGDAGVTWRLARQLVAEHDVQVRLWIDDLAAFVRLCPDADPCASQQLREGVSVCRWPADWVSSTVPDVVIEAFACRLPTSYTESMLQRSPRPLWLNLEYLSAEDWVSGCHGLPSPQMNGLKKFFFFPGFADTTGGLLRERNLIGQRQAFQQDKALQQAFLQELNVEPLAGARLISVFAYETPRLDSWLDALASDSRPTHLLVPEGRILADVQRWLGSEGQLHAGTVQASGALTVQVLPFIRQERYDQLLWSCDFNVVRGEDSFVRAQWAGRPMLWHIYQQEEDAHLPKLDAFLALYL” it was “not soluble”.
“MAHHHHHHMRRVERSSRGEGEDTLATGEANVRTDTTVDVLRRASRHAQGAIETSWMTTRRLQVQGEQLEEIDRALDKMEHDLGVGDDALRRMTWTGRVKRWFTSRRKQPSDGVESSTSSSVPSSSLPIKPQGLREKNQQREGTRGSKRDDVIGCGSSTSHIAMEEEKLLDALLGDVHAMREQATLQGAMLTEHNRRLDVIATKTDAVHNHVNRTKQKVEKML”: the “soluble on expression in E. coli” value was “soluble”.
Consider “ASAFSESEETFVRIVAQWAGKEISRRRNQKRANAERERLRQIIDTIPQQVFVKDADGTYTLANKAAAAAHGVAVERLEGATHDEFALSDEQRDFKSDDAAVIENGESVHIEEDGLVEADGSSHTVQTDIVPIEIAS”, for which the “soluble on expression in E. coli” value is given as “not soluble”.
Under “MTNNAVLQLRAERLARATRPFLARGNRVRRCQRCLLPLKSCLCDTLTPSQAKSRFCLVMFDTEPMKPSNTGRLIADILPDTAAFQWSRTEPPQALLELVQHPDYQPIVVFPASYAGEAREVISTPPAGKPPLFIMLDGTWPEARKMFRKCPYLDHLPVISVDLSRLSAYRLREIHAEGQYCTAEVAIALLDLAGDTEAATSLGEHFTRFKTRYLAGKTQHPGNVTALEHHHHHH” stands “not soluble”; under “MGSSHHHHHHGMASMTGGQQMGRDLYDDDDKDPSSRSMAKLTKPKTEGILHKGQSLYEYLDARVLTSKPFGAAGDATTDDTEVIAASLNSQKAVTISDGVFSSSGINSNYCNLDGRGSGVLSHRSSTGNYLVFNNPRTGRLSNITVESNKATDTTQGQQVSLAGGSDVTVSDVNFSNVKGTGFSLIAYPNDAPPDGLMIKGIRGSYSGYATNKAAGCVLADSSVNSLIDNVIAKNYPQFGAVELKGTASYNIVSNVIGADCQHVTYNGTEGPIAPSNNLIKGVMANNPKYAAVVAGKGSTNLISDVLVDYSTSDARQAHGVTVEGSDNVINNVLMSGCDGTNSLGQRQTATIARFIGTANNNYASVFPSYSATGVITFESGSTRNFVEVKHPGRRNDLLSSASTIDGAATIDGTSNSNVVHAPALGQYIGSMSGRFEWRIKSMSLPSGVLTSADKYRMLGDGAVSLAVGGGTSSQVRLFTSDGTSRTVSLTNGNVRLSTSSTGYLQLGADAMTPDSTGTYALGSASRAWSGGFTQAAFTVTS”, “soluble”; under “MINNVLVWKQPNISWIHPINIDNSINANNFNFDYLDTLNKLRSSNLKILELRDIADKISDGPFGSQLKVEEYKEQGFPVYRVKNIIDTQILDDDIVYIDAKKQQQLKRSEVLPGDVLITKAGRIGSAAVVPSKFGNGNITSHLVLVRLKKTINNYYLVAYLECKYGKVITGRESYKSTRPELTKNEIGNVIIPIPSPEIQKYIGDKVRKAEELREEAKRLKKEAETFLYEMIQLKPLNDFDKDMFSFVNSNYIDSERLDSEYYKTKYITLEKLLKSKKVTSFKDIIIESKYGASVPADYTMVGIPFIRGNNLTDNEINIDDIVYLNKKLKDEVKDHHVNTGDILITRSGTVGISAVVDEKCDGFSFGSFMIKLRIDMRIWNPYYIAAFLNSFWGKWQIERLQNGAVQQNINLQEIGRIIIPIISKENQDKIEELIKNYINKKRQSKQLIQEAKQDVEDLIEGNFDMSKVKANS”, “soluble”.
In the case of “MEEHPRAWIISVGNELLIGRTINTNAAWLGSRLTLLGFEVERVVTVPDRVEDIAEEVGRALGRARVVITTGGLGPTYDDVTLQGVAMALGRGLKLHPGALEMVRRFYSKRGLGLTEDRVKMAMLPDGAEPLENPVGAAPGAVVEARGSLVASLPGVPSEMEAMFEKALRPLLEEIAPPGAVVECGIAVVGVPESSLAPYIKEASRVSPRVYVKSHPQGSEIGKPLVR”, the “soluble on expression in E. coli” value is recorded as “not soluble”.
Under “AIADYSNTYGAYGGGGFLPESPARTGGNASTRFGVGSGSSLRDQRRSLLPVRVADLVHAVHDPVTNTFVLRDENEHQSITISEGSIVKVVAYVEELREQPLDLLWLLDDRSGEMIWARMASTSSSSLAALEQSGILVRVFGQLLEVDGRRVLNVRAIRKADGEVELRYHENLCQLSKLQLIRGYPTAGNALAGASSSPASPKAGPSKAVHRSSLGSGAPKEMAQQAPGLEIPAAFPPEHFKVLKCIREETARNRDAMLTDIAQRIALSTTKVRGICDALQNEGHIYCTLDDDTFRASSS” stands “soluble”.
Regarding “MGSDKIHHHHHHMSIFISGSLAYDRIMNFPGKFSDHILPDKIHILNVCFLIDRLEEKRGGTAGNIAYSLALLGEKPTILATVGKDFDRYEEVLTGLGLPQDGIRKMDDQFTAGAYITTDQSDNQITGFNPAAMSHPCGYQFNGVTPENDLAIVSPGNLQDMVELPRKFRSMGMRYIFDPGQQITALTGDSMLECINGAHMLVSNDYELEMIMKATGRTKAELLTMTDYIITTLGENGSRIDNGEPVMVGIARPRQVLDPTGAGDAFRAGLLKGLTDGLDVAGAAKIGATCASFCVEHYGTQEHTFTPEEFKARHQAAFGA”, the “soluble on expression in E. coli” value is “not soluble”.
With “MGSDKIHHHHHHMTPRPVSSVARLVEDNAQDFLRAVQAKLLTLAPQARGHFPTADDATHISIAEMVSALLEGTGEEGKVDDKTLEFFKEAALDARRFGLTPEMHSALGEAVRSELLSLCEDLPFENVLFAERAIAATTAVSVEAVREADEAHIPASYQAEIVEVEKRSRRFTVVRMQAETQLPYLPGQYLAATADFLPNTWRYLCPSIPTNEWGQVEFHIQSDADDIAGLLATTRLGDKWRLGPGRGDFGQSKISSGNDLLFIAHGTGLAPLRAYMFELMNQAAPPRLHFFVGADYPGELYELTGMWNFAAASPWLSVVPVSTHDKDAWWVQATEASQPPRGLHLHQTGSMAKIVTEAGAWADRDVLIAGPESWARDVRRAMIRRGTPAQQIEILGF”, the “soluble on expression in E. coli” value is on record as “not soluble”.
Regarding “MSLKNQKPLAELLRPSTLEEYFGQNKLIGEQTLLRSLLKSQEIPSLILWGPPGCGKTTLAHIIASSIKQKGTGRFVTLSATSASVSDVREVIKQAQNELRLCKRKTVLFIDEIHRFNKSQQDTFLPHVECGTITLIGATTENPSFQVNSALLSRCRVLVLERLSVEAVGSILRRAVDFLDLRILDSEERHSSEICSEAQVCVEQKALDTLAHLCDGDARAALNGLQLAVQACVLQSSSNHNRSSTVVREQHIKEALQRSHILYDKAGEEHYNCISALHKSMRGSDANAALYWLARMLEGGEDPLYVARRLVRFASEDIGLADPVALSQAVAAFQACHLIGMPECEVILAQCAVYLARAPKSVEVYKAYNNVKMCLRNHKGPLPSVPLHLRNAPTKLMKNLGYAKGYKYNPNYSGPVKQEYLPEELRGVDFFTWTPSEGHHHHHH”, the “soluble on expression in E. coli” value is given as “not soluble”.
Regarding “DVKLVQSGPGLVAPSQSLSITCTVSGFSLTTYGVSWVRQPPGKGLEWLGVIWGDGNTTYHSALISRLSISKDNSRSQVFLKLNSLHTDDTATYYCAGNYYGMDYWGQGTSVTVSSAETTAPSVYKLEPVSSVTLGCLVKGYFPEPVTLTWNSGSLSSGVHTFPAVLQSDLYTLSSSVTVTSSTWPSQSITCNVAHPASSTKVDKKIEPRG”, the “soluble on expression in E. coli” value was “soluble”.
With “GPGSMPVEREVITLAFGNYSSLVAAQWANGTSHYDAHHSTLYSECRSADVLGGGSSGNGRVRVPRLLLLDAPYASAFDDIDVWARKYKDDAKIGEEGDAAYNPSEASPSPVHRGDATEEKDHLFASVVKAVQRHVFEQHGLDDDDSHGGNDDAGGADDAQNDDGEDADAHLLDEDEEDDVSKNAGRRGSATIPHSRAQRQARLKRKLFDEHNTTIPWWQYITTGLGPNSVTSVKPLQHVDAAGDLPALHSFGYGLAYLRDGGRSSEVVDLNDALRRNLEAADQLQGIQCFTDGDGLFGGAAANVLEQLWEDAGPKTPVVQACSFARLPALVADPAYRAEVAFRERRMDEVALNQLLATLHLSRHTSAVYIPVPLSDWDVLFKGAATAASPTEAPPWLQDERATAQLLAAVIDTALYGLRDGSRASGVSSQGPQWYMDEWCRVVRPAPSLRVAAAMGALPQSVSASSELWEFLQANPLLPDAPQLDERMVRANDSAEDDASSGQARQQAKFFPLTHTMSTYSTAHTAGQVLGHVASLRGAGCLPATVYPAREAMLRYALPLRTSTYLPLVTEVSYPISDTFPTELLFADPAAMAKVPGGASGSGGSEGITSLRRVLQSVDVGAHVLSTYATAPMLHDISTKAQAALRNKMDRYCDAYVMEKDDWREALDEGLALFDDYNHAPLSDAQDGGGSDGDDY”, the “soluble on expression in E. coli” value is recorded as “not soluble”.
For the sequence “SNAMADKIKVGLLGYGYASKTFHAPLIMGTPGLELAGVSSSDASKVHADWPAIPVVSDPQMLFNDPSIDLIVIPTPNDTHFPLAQSALAAGKHVVVDKPFTVTLSQANALKEHADDAGLLLSVFHNRRWDSDFLTLKTLLAEGSLGNVVYFESHFDRYRPEIRQRWREQAGAGGGIWYDLGPHLLDQALQLFGLPETLNVDLGMLRPGSQSVDYFHAVLSYPGQRVVLHSTVLAAAETARYIVHGTQGSYIKFGVDPQEDRLKAGERLPQADWGYDMRDGIVTLSHDNVLTEKPLLTLPGNYPAYYAGIRDAIWGTAPNPVPATEAIKVMELIELGIASDQQKKALPIIAKN”, the “soluble on expression in E. coli” value was “soluble”.
Regarding “MGSDKIHHHHHHMMQNNPFPYSNTEKRYHTLNYHLREHFGHKVFKVALDGGFDCPNRDGTVAHGGCTFCSAAGSGDFAGNRTDDLITQFHDIKNRMHEKWKDGKYIAYFQAFTNTHAPVEVLREKFESVLALDDVVGISIATRPDCLPDDVVDYLAELNERTYLWVELGLQTVHERTALLINRAHDFNCYVEGVNKLRKHGIRVCSHIINGLPLEDRDMMMETAKAVADLDVQGIKIHLLHLLKGTPMVKQYEKGKLEFLSQDDYVQLVCDQLEIIPPEMIVHRITGDGPIELMIGPMWSVNKWEVLGAINKELENRGSYQGKFFQRLEEESAL”, the “soluble on expression in E. coli” value was “not soluble”.
As for “MTKFILLALVGLAAAIDFDSSSSESCEDGNGHGHGHGNGNGNGNGNGNGNGGRANGGCETGWRHFRRPSGSWCVRVFGGRLNQGAAQSQCQSFGATLSGLRNLEEARTISNLALSVIGRSSGGIWLGARRTTACAKQHKTTSCSTTSSFRWTDSSASGTAGFVWNNVQPDNSDLNSQCAVLHAGSSAATVSNAVWQPAMMDDVTCSFDPAGRDPRSIYGYVCGKKPSRR”, the “soluble on expression in E. coli” value is reported as “not soluble”.
Consider “MGSSHHHHHHGGTGENLYFQGGSGDLLHFISLVIDLRDYPGYATCIRATEYPGLALCEYNAVAGMRYTVPLGYAASAVYFYLYHRPRLSFADRSLTKLHHYFYPSAGYSTPLGIIGGVICGAAECVQGLTPAALEATAAREKAAAVMAAEQYSQRHRAVKERLKAEQSFASKALAWLQLCEDPVQAELARMGLGEDSIAWETLLVPQGYLWTQLHSVVHDPARYRGYEAPVATGAAVPTSADERLSQPSGGANTPCPSPSGVLSLSRAYFTKPQVDAVVSRIGTLRTSPEEDRWMRSAGRCGAYGVFGMLLTWNSGGALFRAQMGLGLGVVIAGLASATRLDEVFAHL”, for which the “soluble on expression in E. coli” value is given as “not soluble”.
